For experiment [1], the target named is Biotinylated murine CD3E&D (murine) (UniProt P22646). Briefly: BLI (Octet), biotinylated CD3 on SA sensor, 1:1 global fit.
For experiment [2], the target named is human CLDN18.2 (human). Briefly: competition FACS on HEK293/hCLDN18.2 cells; competitor 200 nM biotinylated PR004549; isotype is the reference of the formula.
Experiment [3] addresses human CLDN18.2 (human). Briefly: competition FACS on HEK293/hCLDN18.2 cells; competitor 10 nM biotinylated PR000400; isotype is the reference of the formula.

pKd: −log10 of the molar value.

Biotinylated murine CD3E&D (murine), sequence (P22646 22-108, chain 1 of 2): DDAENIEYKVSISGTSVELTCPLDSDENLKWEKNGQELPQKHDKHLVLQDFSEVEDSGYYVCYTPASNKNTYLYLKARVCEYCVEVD
Biotinylated murine CD3E&D (murine), sequence (P04235 22-105, chain 2 of 2, further chain): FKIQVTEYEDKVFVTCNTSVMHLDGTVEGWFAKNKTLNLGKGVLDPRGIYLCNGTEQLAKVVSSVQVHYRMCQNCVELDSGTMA

As to “anti-CD3e 48-2B (santa cruz biotechnology, SC-1174) (antibody)”, in experiment [1], the pKd – broadly, the Kd on a negative log10 scale, so that one unit is a factor of ten – is 9.77; the koff (in general, a measure of how fast the partners let go of each other) is 0.000137 s⁻¹; the kon (in general, a measure of how fast the partners come together) came out at 803000 M⁻¹ s⁻¹.
Turning to “Iso hIgG1 (CrownBio, C0001-4) (antibody)”, the Maximum inhibition rate (%) with human CLDN18.2 (human) [2] and in the experiment with human CLDN18.2 (human) [3] was 0% in each case.

The values are drawn from patent US20250340631A1.
